This note sets out measurements from article PMC3014015, “Structural Insights into Substrate Specificity in Variants of N-Acetylneuraminic Acid Lyase Produced by Directed Evolution” (Journal of Molecular Biology, 2010).

Data set [1] deals with E192N variant of Escherichia coli N-acetylneuraminic acid lyase (Escherichia coli). In words: crystal structure; space group P2_(1), four crystallographically independent subunits (tetramer); crystals grown at 4 °C by sitting drop in 100 mM Tris-HCl pH 8.0-8.30, 200 mM NaCl, 18% (wt/vol) PEG 3350; some crystals soaked with 100 mM pyruvate and 70 mM THB.
For data set [2], the system named is T1, CCCN(CCC)C(=O)[C@H](O)[C@H](O)C(O)CC(=O)C(=O)O.
T1 construct: hexa-His-tagged protein
Nature of the data set: steady-state kinetics (Km), coupled lactate dehydrogenase/NADH assay. The class given is biochemical, Escherichia coli.

The target of data set [3] is T2, N-acetylneuraminic acid lyase (Escherichia coli, UniProt P0A6L4, E192N).
T2 construct: gene nanA; hexa-His-tagged protein
T2 sequence (P0A6L4 2-297 E192N): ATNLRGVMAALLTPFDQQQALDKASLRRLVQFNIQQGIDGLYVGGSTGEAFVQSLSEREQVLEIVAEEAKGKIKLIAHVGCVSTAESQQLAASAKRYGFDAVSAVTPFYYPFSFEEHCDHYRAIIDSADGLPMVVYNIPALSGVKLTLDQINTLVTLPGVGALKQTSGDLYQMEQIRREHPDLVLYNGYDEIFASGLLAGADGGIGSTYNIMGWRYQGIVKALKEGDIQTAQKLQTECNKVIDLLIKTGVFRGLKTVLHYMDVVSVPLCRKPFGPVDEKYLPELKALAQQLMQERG
Nature of the data set: coupled cleavage assay of purified enzyme; crystal soaking gave only the cleavage product pyruvate. It counts as biochemical.

Data set [4] addresses T3, N-acetylneuraminic acid lyase (Escherichia coli, UniProt P0A6L4, E192Q).
T3 construct: gene nanA; hexa-His-tagged protein
T3 sequence (P0A6L4 2-297 E192Q): T2 sequence (P0A6L4 2-297 E192N)
Nature of the data set: steady-state kinetics (Km), coupled lactate dehydrogenase/NADH assay. It counts as biochemical. The note with it: read-out: Neu5Ac / Km.

Turning to “E192N variant of Escherichia coli N-acetylneuraminic acid lyase (enzyme)”, the stoichiometry N in data set [1] worked out at 4.

Turning to “N-acetylneuraminic acid lyase (Escherichia coli K-12; E192F)”, in data set [2], the Km is 300 ± 20 µM, the kcat turned out to be 1.47 ± 0.0333 s⁻¹ and the kcat/Km stood at 5170 M⁻¹ s⁻¹.

Regarding “N-acetylneuraminic acid lyase (Escherichia coli K-12; E192M)”, in data set [2], the Km amounted to 200 ± 30 µM, the kcat was determined as 1.17 ± 0.05 s⁻¹ and the kcat/Km turned out to be 5330 M⁻¹ s⁻¹.

As to `CCCN(CCC)C(=O)[C@H](O)[C@H](O)C(O)CC(=O)C(=O)O` (stereo partly drawn) [DPAH, (5R,6R)-7-(dipropylamino)-4,5,6-trihydroxy-2,7-dioxoheptanoic acid], in data set [3], the “coupled cleavage assay of purified enzyme; crystal soaking gave only the cleavag” value is reported as “confirmed that the E192N enzyme had the highest activity for DPAH”.

As to N-Acetylneuraminic acid [Neu5Ac], the Km in data set [4] came out at 3500 ± 500 µM.

For “N-acetylneuraminic acid lyase (Escherichia coli K-12; E192Q)”, in data set [2], the Km worked out at 700 ± 50 µM, the kcat is 2.83 ± 0.0667 s⁻¹ and the kcat/Km came to 4170 M⁻¹ s⁻¹.

Take “N-acetylneuraminic acid lyase (Escherichia coli K-12; E192P)”: in data set [2], the Km is 200 ± 20 µM, the kcat is 0.817 ± 0.0167 s⁻¹ and the kcat/Km was determined as 4330 M⁻¹ s⁻¹.
